Literature values as cited in PMC12687026.

Legend:
Glu212 = test: kinetics; conditions: green (unconverted) LEA
His194 = test: kinetics; conditions: green (unconverted) LEA

What does the source list for “LEA (least evolved ancestor), engineered Kaede-like green-to-red photoconvertible fluorescent protein (synthetic construct (reconstructed ancestral coral fluorescent protein))”?
pKa (Glu212): ∼4.5; pKa (His194): ∼7.5
